Reference: article PMC3033427, “Role of the Small GTPase Rho3 in Golgi/Endosome Trafficking through Functional Interaction with Adaptin in Fission Yeast” (PLoS ONE, 2011)
Changes are numbered by the printed parent chain. Numbers in names are those of the source.

T1: Apm1-GST (purified full-length Apm1 fused to GST) (S. pombe, UniProt Q9HFE5 1-426)
T1 construct: Apm1, µ1 subunit of the clathrin-associated adaptor protein-1 (AP-1) complex of fission yeast, full length; the methods give no details of the construct or its expression; also called GST-fused Apm1; µ1 subunit of the AP-1 complex; source: purified; not shown: GST, C-terminal, kept
T1 sequence (looked up): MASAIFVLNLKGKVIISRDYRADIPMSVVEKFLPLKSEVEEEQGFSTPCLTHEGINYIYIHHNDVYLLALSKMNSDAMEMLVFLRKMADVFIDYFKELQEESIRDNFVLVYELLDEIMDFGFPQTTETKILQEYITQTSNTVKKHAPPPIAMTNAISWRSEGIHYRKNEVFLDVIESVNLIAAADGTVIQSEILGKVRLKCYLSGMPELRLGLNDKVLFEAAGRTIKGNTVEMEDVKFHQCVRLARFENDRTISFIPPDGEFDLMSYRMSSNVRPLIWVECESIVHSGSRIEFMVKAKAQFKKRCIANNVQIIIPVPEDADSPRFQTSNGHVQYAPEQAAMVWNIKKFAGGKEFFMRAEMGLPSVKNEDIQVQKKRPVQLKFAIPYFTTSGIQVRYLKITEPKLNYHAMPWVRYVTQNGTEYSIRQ

B1: GFP-Rho3 (wild-type Rho3 fused to GFP) (natural protein, S. pombe, UniProt O13928 1-205, looked up)
chain: MSSCFGSKKKPIYRKIVILGDGAAGKTSLLNVFTKGYFPQVYEPTIFENYIHDIFVDGNSIELSLWDTAGQEEYDQLRSLSYSDTHVIMICFAVDSRDSLENVITKWLPEVSSNCPGVKLVLVALKCDLRGADEEQVDHSKIIDYEEGLAAAKKINAVRYLECSAKLNRGVNEAFTEAARVALAAQPRGTKDGADESHGTGCIIA
notes: Rho3, Rho-family small GTPase of S. pombe (SPAC23C4.08); complete open reading frame amplified from genomic DNA, first methionine as in the Sanger Institute database; The name GFP-Rho3 puts GFP at the N-terminus, but the methods say the ORF 'was ligated to the N-terminus of the GFP'; also called GFP-fused Rho3; source: S. pombe cells, overexpressed from the inducible nmt1 promoter, …
B2: GFP-Rho3G22V (GTP-locked variant of Rho3 fused to GFP) (natural protein, S. pombe, UniProt O13928 1-205, looked up)
chain: B1 chain with G22V
notes: Rho3 of S. pombe (SPAC23C4.08), complete open reading frame, Gly22 changed to Val by site-directed mutagenesis; also called Rho3GV; GFP-Rho3GV; source: S. pombe cells, overexpressed from the inducible nmt1 promoter, in lysate (pull-down); not shown: GFP (S65T), N-terminal, kept
B3: GFP-Rho3E48V (effector domain mutant of Rho3 fused to GFP) (natural protein, S. pombe, UniProt O13928 1-205, looked up)
chain: B1 chain with E48V
notes: Rho3 of S. pombe (SPAC23C4.08), complete open reading frame, Glu48 changed to Val by site-directed mutagenesis; Analogue of the budding yeast rho3-V51 mutant; also called Rho3EV; GFP-Rho3EV; source: S. pombe cells, overexpressed from the inducible nmt1 promoter, in lysate (pull-down); not shown: GFP (S65T), N-terminal, kept

Key:
[1] = target: T1, Apm1-GST (purified full-length Apm1 …); assay: affinity capillary electrophoresis; GFP-fused Rho3 sample migrating in 50 mM phosphate buffer pH 6.8 containing Apm1-GST at 100 µg/ml (control: GST-Rho3 at 100 µg/ml); 15 kV, 25°C, laser-induced fluorescence detection; migration time-shift = t(control) - t(affinity)
[2] = target: T1, Apm1-GST (purified full-length Apm1 …); assay: affinity capillary electrophoresis; GFP-fused Rho3 sample migrating in 50 mM phosphate buffer pH 6.8 containing Apm1-GST at 200 µg/ml (control: GST-Rho3 at 200 µg/ml); 15 kV, 25°C, laser-induced fluorescence detection; migration time-shift = t(control) - t(affinity)

| Binder | migration time-shift [1] | migration time-shift [2] |
| --- | --- | --- |
| B1 | 0.45 min | 0.84 min |
| B2 | 1.33 min | 0.94 min |
| B3 | 0.25 min | 0.82 min |
